Measured values from the supplement of paper PMC9170038.

How the values were obtained:
MS2 coat protein [1] = assay: apparent KD of MS2 coat protein, switch ON state; designed switch direction (-1 OFF switch, 1 ON switch): -1; higher = weaker reporter binding; settings: FMN input: 0 or 200 uM; Eterna round: R93 (includes R88 designs)
In short: (§1)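 Binding of SNAP-549-labelled MS2 coat protein was measured on designed RNA switches transcribed on-chip from Illumina sequencing clusters. The protein rose in twofold steps from 0.7 or 1.5 nM to 3 µM, with 0.8–1.5 h per step early on and 10–20 min per step later, in 100 mM Tris-HCl pH 7.5, 80 mM KCl, 4 mM MgCl2, without or with constant ligand. Each design's apparent KD is the median of fits to its normalised cluster binding curves.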

MS2 coat protein [2] = assay: apparent KD of MS2 coat protein, switch OFF state (with FMN for OFF switches, without FMN for ON switches); designed switch direction (-1 OFF switch, 1 ON switch): -1; higher = weaker reporter binding; settings: FMN input: 0 or 200 uM; Eterna round: R93 (includes R88 designs)
In short: as §1

Sequence | apparent KD of MS2 coat protein (MS2 coat protein [1]) [nM] | apparent KD of MS2 coat protein (MS2 coat protein [2]) [nM]
AAAAAGGGAGGAUAUACAUGAGGAUCACCCAUGUAACAGACGAAAAAGAGUCUGAAAAGUAGAAGGCCCAAAAA [65%, Moding Exclusion3-cac2, 7] | 24.7 | 19.2
AAAAAGGGAGGAUAUACGAAAUAGGGAAACCUAAAAAAGGGACAUGAGGAUCACCCAUGUAGAAGGCCCAAGAA [Clint Eastwood 64% 6] | 39 | 223
AAAAAGGGAGGAUAUGCAUACACAAAAAAAAAAAAAAAAAAACAUGAGGAUCACCCAUGUAGAAGGCCCAAAAA [Dora Explored 3 - Jieux - Exclusion 2] | 37.4 | 28.9
AAAAAGUCAGGAUAUACAAAAGUGCGAAAGCACAAAAAGGGACAUGAGGAUCACCCAUGUAGAAGGGACAAGAA [Married to this design, 61% 4] | 73.3 | 124
AAAAAGUCAGGAUAUGCGAAGGCGUCUGAUAGACGAGGCUAGCAGAAGGGACAUGAGGAUCACCCAUGUAAAAA [Mat - Exclusion 4 - Rerun - D81] | 50.5 | 45
AAAAAGUCAGGAUAUGCGAAGGCGUCUGAUAGACGAGGCUAGCAGAAGGGACAUGAGGAUCACCCAUGUAAAAA [Mat - Mod of Nando] | 50.5 | 45
AAAAAGUCAGGAUAUGCGAAGGCGUCUGAUAGACGAGGCUAGCAGAAGGGACAUGAGGAUCACCCAUGUGAAAA [Mat - Mod of Nando 64% 1] | 57.9 | 143
AAAAAGUCAGGAUAUGUCAAAAGUCACAAAAGUGACAAAAGACAGAAGGGACAUGAGGAUCACCCAUGUGGAAA [Mod of Eli - Late G segment 1] | 89.3 | 134
AAAAAGUGAGGAUAUACAUGAAAAAAAAAAAAAAAAAAAAAACAUGAGGAUCACCCAUGUAGAAGGCGCAAAAA [GC GU GC sandwich] | 31.5 | 43.1
AAAAAGUGAGGAUAUACAUGAGGAUCACCCAUGUGAAGGGAAGAAAGAAAGAAAGAAAGUAGAAGGCACAAAAA [Default title] | 51.1 | 222
AAAAAGUGAGGAUAUACGCUGUGGAGUAGACACAACCAGGCGUAGAAGGCACAUGAGGAUCACCCAUGUCCAAA [EX4 Malc#18] | 23.9 | 44.1
AAAAAGUGAGGAUAUAGCAAAGGUCACGAAAGUGACAAAGGCUAGAAGGCACAUGAGGAUCACCCAUGUCCAAG [Mat - Exclusion 4 - Eli mod - D98] | 28.6 | 56.5
AAAAAGUGAGGAUAUUCGGAAGGGAAAGCGCAAACCCAACCGAAGAAGGCACAUGAGGAUCACCCAUGUGAAAA [Ecls4-III 65% - Early + late G segment 1] | 21.2 | 33
AAAAAGUGAGGAUAUUCGGAAGGGAAAGCGCAAACCCAACCGAAGAAGGCACAUGAGGAUCACCCAUGUGGAAG [Mat - Exaclusion 4 - Eli mod - D57] | 29.5 | 30.2
AAAAAGUUAGGAUAUACAUGAGGAUCACCCAUGUGCACAUAUGGAGAAUAUGGUAGUAGUAGAAGGGACAAAAA [EX2 Malc#16] | 30.3 | 33.3
AAAAAUGGAGGAUAUACAUGAGGAUCACCCAUGUGUGGGCAUACUGUGUCGGCGUCAGGUAGAAGGCCAAAAAA [Gilly Gone Silly 27 - Jieux - Exclusion 3] | 36.5 | 47.8
AAAAAUUGAGGAUAUACAUGAGGAUCACCCAUGUUAGAACAAAAAAAAGGGAAAGAAAGUAGAAGGCAAUAAAA [Ex 3 May 26] | 20 | 26.9
AAAACGAUAGGAUAUACAUGAGGAUCACCCAUGUUAAAAUGUAGAAGGCUGAAAAAAAGUAGAAGGAUCAAAAA [EXC - 3] | 29.5 | 34.4
AAAACGUGAGGAUAUGCACCAAAAAAGAAAAAACGGGUACGACAUGAGGAUCACCCAUGUAGAAGGCACGAAAA [Frodo Flailing 8 - Jieux - Exclusion 2] | 35.3 | 37.2
AAAAGACAUGAGGAUCACCCAUGUCAGGAUAUGACUUGAAAAAUAAAAUAAAAACAUGUCAGAAGGGACAUGAA [Design 46: Sub-opt DB] | 28.5 | 25.2
AAAAGACAUGAGGAUCACCCAUGUGAGGAUAUCGGAAAAGGAAAAAUAAAAAAGAAGACGAGAAGGCACACCAA [Mat - Exclusion 1 - Eli mod - D75] | 43.9 | 48.2
AAAAGGGCAGGAUAUGCAUGUUGGCAAAAUUCUCAUCAAACACAUGAGGAUCACCCAUGUAGAAGGGCCAACGG [Inonenonat] | 110 | 161

Sequence | apparent KD of MS2 coat protein (MS2 coat protein [1]) [nM] | apparent KD of MS2 coat protein (MS2 coat protein [2]) [nM]
AAAAGGUCAGGAUAUGCCCACCUGGUGGAAAAACCAGGUGGGCAGAAGGGACAUGAGGAUCACCCAUGUAAAAA [Excls4-Ii] | 53.1 | 78.2
AAAAUACAUGAGGAUCACCCAUGUGAGGAUAUGCAAAACCCAUAUAAAAAGGGAAAAAGCAGAAGGCACAAAAA [wbt round 1 mod 15] | 33 | 52.9
AAAAUGUCAGGAUAUGUAAAAAAAAAAAAAAAAAAAAAAAUACAGAAGGGACAUGAGGAUCACCCAUGUCAGGG [EX4 390: Minimal 2] | 113 | 79
AAACAGGGAGGAUAUACACCAUACAAACCUCUAAACAAAAGACAUGAGGAUCACCCAUGUAGAAGGCCCAACAA [Default title] | 57.5 | 103
AAACCACAUGAGGAUCACCCAUGUAAGGAUAUGAACGAAAAUAAAUAAAAAUAAAAGUUCAGAAGGUACAAAAA [66%, Wbt, 22] | 26.3 | 24.3
AAACCACAUGAGGAUCACCCAUGUUAGGAUAUGAACGAAAAUAAAUAAAAAUAAAAGUUCAGAAGGGACAAAAA [66%, Wbt, 21] | 21.5 | 14.9
AAACGUAGAGGAUAUACAUAAGUAUUACGAAAGUAAUACAAACAUGAGGAUCACCCAUGUAGAAGGCUACGAAA [MOD2 of Meechl's MS2 Ex2 (MS2 riboswitches - Exlclusion 2)] | 24.9 | 28
AAAGACAGAGGAUAUACAUGAGGAUCACCCAUGUGGCGAAAAAAAAUCCAUUUGGCAUGUAGAAGGCUGUAUGA [Orerzadi] | 66.9 | 51.3
AAAGAGCAAGGAUAUACAUGAGGAUCACCCAUGUAUGGAGAUACAAAACAAAAGAUCAGUAGAAGGUGCGGAUG [Rageleor] | 20.3 | 26.3
AAAGAUACAGGAUAUACAUGAGGAUCACCCAUGUGGAACCAAAAAUGGGAAAAAGAAAGUAGAAGGGUAUAAAA [Ex 3 May 37] | 38.8 | 35.7
AAAGAUACAGGAUAUACAUGAGGAUCACCCAUGUUAGACCAAAAAUGGGAAAAAGAAAGUAGAAGGGUAUAAAA [Ex 3 May 35] | 26 | 54.5
AAAGAUGGAGGAUAUACAUGAGGAUCACCCAUGUGGAAAAAAAAUUGGGAAAAAGAAAGUAGAAGGCCAAAAAA [Ex 3 May 42] | 48.1 | 155
AAAGGACAAGGAUAUACAUGAGGAUCACCCAUGUAAAAAACAUAAUAAAAGAACUUAUGUAGAAGGUGUCCAAA [69%, Moding Meechl, 8] | 38.3 | 177
AAAGGACAUGAGGAUCACCCAUGUGAGGAUAUGCUCUACGAACGAAUACACAUGAGAAGCAGAAGGCACAUAAG [try 1] | 43.8 | 142
AAAGGAGCAGGAUAUACAUGAGGAUCACCCAUGUAAAAAACAUAAUAAAAGAACUUAUGUAGAAGGGCUCCAAA [69%, Moding Meechl, 10] | 48.2 | 228
AAAUGACAUGAGGAUCACCCAUGUCAGGAUAUGACUUGAAAAUAAAAUAAAAAACAUGUCAGAAGGGACAUGAA [Design 49: Sub-opt EB] | 13.5 | 12.4
AACAAACAUGAGGAUCACCCAUGUGAGGAUAUACAAACAAACAAAAACAAAACAAAAAGUAGAAGGCACAACAA [JR_Exc001_Sub002] | 19.4 | 18.9
AACAAACAUGAGGAUCACCCAUGUGAGGAUAUGAAAAUAAAUAAAAAUAAAAUAAAAAUCAGAAGGCACAACAA [JR_Exc001_Sub003] | 25.6 | 28.2
AACAAGACAGGAUAUACAUGAGGAUCACCCAUGUCACAACAAAGCAGCGCAACACAAAGUAGAAGGGUCAUGAA [Ruby 12] | 45.1 | 46.9
AACAGUACAGGAUAUACAUGAGGAUCACCCAUGUGAAAAUUAAGUGGCGAACCACAGUGUAGAAGGGUACUGGA [Mat - Exclusion 3 - Eli mod - D51] | 81.8 | 33.5
AACAGUACAGGAUAUACAUGAGGAUCACCCAUGUGAAAAUUAAGUGGGAAACCACAGUGUAGAAGGGUACUGAA [Mat - Exclusion 3 - Eli mod - D55] | 120 | 93
AACAGUACAGGAUAUACAUGAGGAUCACCCAUGUGAAGAUUAAGUGGAGUACCACAAAGUAGAAGGGUACUGGA [Ruby 89] | 28.1 | 101
